Where no end group is shown, it is not given here. The star is where a group is joined. BMPH = NNC(=O)CCN1C(=O)CC(*)C1=O
Legend:
Experiment in all cases: BLI
[1] = target: N-terminal leucine peptide (X-GMMSC, X = leucine)
[2] = target: N-terminal methionine peptide (X-GMMSC, X = methionine)
[3] = target: T1, Methionine aminopeptidase from E. coli (E. coli, UniProt P0AE18 1-264)
T1 sequence: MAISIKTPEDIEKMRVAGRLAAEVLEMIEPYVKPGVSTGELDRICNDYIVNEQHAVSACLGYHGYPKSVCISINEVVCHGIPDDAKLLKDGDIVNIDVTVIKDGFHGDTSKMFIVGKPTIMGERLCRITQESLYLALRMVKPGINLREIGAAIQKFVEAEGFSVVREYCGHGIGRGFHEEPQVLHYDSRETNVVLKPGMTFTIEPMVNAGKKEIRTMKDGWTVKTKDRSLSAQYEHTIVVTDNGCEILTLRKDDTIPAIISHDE

**Q.** Which results are given for “eLAP, designed leucine aminopeptidase derived from E. coli methionine aminopeptidase (from UniProt P0AE18 4-264) (enzyme)”?
**A.** Kd [1]: 0.826 µM; koff [1]: 0.00142 s⁻¹; kon [1]: 1720 M⁻¹ s⁻¹; Kd [2]: 19.1 µM; koff [2]: 0.00408 s⁻¹; kon [2]: 214 M⁻¹ s⁻¹

**Q.** Which results are given for LGMMSC(BMPH) [N-terminal leucine peptide (X-GMMSC, X = leucine)]?
**A.** Kd [3]: 54.2 µM; koff [3]: 0.0147 s⁻¹; kon [3]: 271 M⁻¹ s⁻¹

**Q.** Which results are given for MGMMSC(BMPH) [N-terminal methionine peptide (X-GMMSC, X = methionine)]?
**A.** Kd [3]: 2.65 µM; koff [3]: 0.00489 s⁻¹; kon [3]: 1850 M⁻¹ s⁻¹
